± gives the standard error. For part of these data: Fewer inactive variants are shown than the library holds.
B1: glmS ribozyme (parent)
chain: AUAAAAGCGCCAGAACUACAGAAAUGUAGUUGACGAGGAGGAGGUUUAUCGAAUUUUCGGCGGAUGCCUCCAAA

Columns and labels:
Conditions in all cases: with glucosamine-6-phosphate
[1] = variants of: B1; test: kcat; higher = faster cleavage; RNA array
Summary of the method: (§1)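 kobs was derived by fitting per-tile medians to one- or two-exponential decays after normalising signals to baseline and to non-cleaving reference variants. Those signals came from barcoded ribozyme variants transcribed in situ by E. coli RNA polymerase on sequenced MiSeq chips, followed through a hybridised Cy3 probe at 37 °C and imaged over ~14 h. Glucosamine-6-phosphate (40 μM to 10 mM) in HEPES/KCl/Mg(OAc)2 buffer was flowed in. Weighted Michaelis–Menten fits across concentrations then gave kcat and KM.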

[2] = variants of: B1; test: self-cleavage kobs at 40 uM GlcN6P; higher = faster cleavage; RNA array
Summary of the method: as §1

[3] = variants of: B1; test: self-cleavage kobs at 2500 uM GlcN6P; higher = faster cleavage; RNA array
Summary of the method: as §1

[4] = variants of: B1; test: KM; higher = weaker cofactor use; RNA array
Summary of the method: as §1

[5] = variants of: B1; test: self-cleavage kobs at 160 uM GlcN6P; higher = faster cleavage; RNA array
Summary of the method: as §1

[6] = variants of: B1; test: self-cleavage kobs at 640 uM GlcN6P; higher = faster cleavage; RNA array
Summary of the method: as §1

[7] = variants of: B1; test: self-cleavage kobs at 10000 uM GlcN6P; higher = faster cleavage; RNA array
Summary of the method: as §1

Variant | kcat [1] [s⁻¹] | self-cleavage kobs at 40 uM GlcN6P [2] [s⁻¹] | self-cleavage kobs at 2500 uM GlcN6P [3] [s⁻¹] | KM [4] [µM] | self-cleavage kobs at 160 uM GlcN6P [5] [s⁻¹] | self-cleavage kobs at 640 uM GlcN6P [6] [s⁻¹] | self-cleavage kobs at 10000 uM GlcN6P [7] [s⁻¹]
A6U C68G | 1.22e-05 ± 3e-06 | – | – | – | – | – | –
C58G G63C | < 1e-05 | < 1e-05 | < 1e-05 | – | – | – | –
G29A C68U | 0.000627 ± 0.0001 | 2.8e-05 ± 8.3e-06 | 0.000374 ± 4.7e-05 | 1720 ± 550 | 6.11e-05 ± 8.5e-06 | 0.000122 ± 2.6e-05 | 0.000549 ± 5.1e-05
A15G U69A | 0.000201 ± 4.3e-05 | 6.42e-05 ± 9.6e-06 | 0.000264 ± 5.2e-05 | – | 0.000145 ± 1.7e-05 | 0.000137 ± 1.8e-05 | 0.000312 ± 4.6e-05
A14U C68A | 2.98e-05 ± 1e-05 | – | 3.98e-05 ± 1.4e-05 | – | – | – | –
A15C C16A G62U | < 1e-05 | < 1e-05 | – | – | – | – | –
U30A U57G | 2.86e-05 ± 9.5e-06 | – | 3.99e-05 ± 1.7e-05 | – | – | – | –
U30A U57A | 6.66e-05 ± 1.8e-05 | < 1e-05 | 3.73e-05 ± 1.2e-05 | – | – | 3.87e-05 ± 1.5e-05 | 6.84e-05 ± 1.4e-05
G13U A15C | 0.000268 ± 2.8e-05 | – | 0.000142 ± 1.9e-05 | 2790 ± 550 | – | 4.71e-05 ± 7.8e-06 | 0.000202 ± 2.4e-05
A36C | < 1e-05 | – | – | – | < 1e-05 | – | –
C10U U31G | 2.34e-05 ± 1.5e-06 | < 1e-05 | – | 552 ± 200 | – | – | –
A14C C67A | 0.00149 ± 0.00032 | 3.89e-05 ± 9.3e-06 | 0.00079 ± 0.00013 | 1850 ± 600 | 0.000145 ± 2.4e-05 | 0.000337 ± 4.4e-05 | 0.00146 ± 0.00024
U31C A33C | < 1e-05 | < 1e-05 | – | 5010 ± 1800 | < 1e-05 | – | –
G13C C68A | 1.1e-05 ± 2.3e-06 | – | – | – | – | – | –
U65C C70G | 1.37e-05 ± 3.9e-06 | – | – | – | – | – | –
U46C U54C | 0.00487 ± 0.00041 | 0.000109 ± 2e-05 | 0.0028 ± 0.00042 | 1870 ± 220 | 0.000406 ± 8.6e-05 | 0.00119 ± 0.00012 | 0.00438 ± 0.0011
G29C G41C | 1.23e-05 ± 4.8e-07 | – | – | 2750 ± 290 | < 1e-05 | < 1e-05 | –
G7U A14U G29A G37U C61G U69C | 0.000491 ± 3.7e-05 | 0.000105 ± 2.3e-05 | 0.000446 ± 0.00019 | 143 ± 19 | 0.000282 ± 7.4e-05 | 0.000389 ± 0.00014 | –
U30A C50A A52G | < 1e-05 | – | – | 39.4 ± 20 | – | < 1e-05 | < 1e-05
